Source: US5886157A, “Expression and purification of human cytochrome P450” (Vanderbilt University, priority 1994, dated 1999)

Columns and labels:
[1] = molecular target: P450 2C1028 (modified human cytochrome P450 2C10 expressed in E. coli) (human) (UniProt P11712); conditions: scale: nmol product formed min^-1
[2] = molecular target: P450 2C1029 (truncated human cytochrome P450 2C10 expressed in E. coli) (human) (UniProt P11712); conditions: scale: nmol product formed min^-1
[3] = molecular target: P450 2C9/10 purified from human liver microsomes (human) (UniProt P11712); conditions: scale: nmol product formed min^-1
[4] = molecular target: recombinant human P450 2E1 (construct 2E1 #18) expressed in E. coli (human) (UniProt P05181); conditions: scale: nmol 6-hydroxychlorzoxazone formed min^-1
[5] = molecular target: recombinant human P450 1A2 (construct 1024) expressed in E. coli (human) (UniProt P05177)
[6] = substrate: c1ccc2c(c1)cc1ccc3cccc4ccc2c1c34; experiment: Benzo(a)pyrene 3-hydroxylation in P450 1A1 reconstituted system; type: biochemical, human; conditions: other: 25 nM P450 1A1, 50 nM NADPH-cytochrome P450 reductase
Procedure: (§1) FIG. 42. Substrate concentration-dependent benzo(a)pyrene 3-hydroxylation (A) and 7-ethoxyresorufin O-deethylation (B) in a P450 1A1 reconstutited system. Benzo(a)pyrene 3-hydroxylation were assayed with 25 nM P450 1A1 and 50 nM NADPH-cytochrome P450 reductase. 7-Ethoxyresorufin O-deethylation were assayed with 5 nM P450 1A1 and 10 nM NADPH-cytochrome P450 reductase.
(§2) 7-Ethoxyresorufin O-dealkylation (Burke and Mayer, Drug Metab. Dispos. 3:245-253 (1975); Burke and Mayer, Chem.-Biol. Interactions 45:243-258 (1983)) and benzo(a)pyrene 3-hydroxylation (Nebert and Gelboin, J. Biol. Chem. 243:6242-6249 (1968); Guengerich in Principles and Methods of Toxicology, Hayes, A. W., Ed., 777-814, Raven Press, New York (1989)) were determined as described elsewhere. Protein concentrations were estimated using a bicinchoninic acid (BCA) method according to the instructions supplied by the manufacturer (Pierce Chemical Co., Rockford, Ill.).
(§3) Catalytic activities. The purified P450 1A1 protein was examined for catalytic activities in a conventional reconstitution system containing rabbit NADPH-P450 reductase and L-α-1,2-dilauroyl-sn-glycero-3-phosphocholine. P450 1A1 catalyzed benzo(a)pyrene 3-hydroxylation and 7-ethoxyresorufin O-deethylation at rates of 1.7 and 6.2 nmol product formed min^-1 (nmol P450)^-1, respectively (FIGS. 41A,B). […]

[7] = substrate: CCOc1ccc2nc3ccc(=O)cc-3oc2c1; experiment: 7-Ethoxyresorufin O-deethylation in P450 1A1 reconstituted system; type: biochemical, human; conditions: other: 5 nM P450 1A1, 10 nM NADPH-cytochrome P450 reductase
Procedure: as §1, §2, §3

## human liver cytochrome b5 (from UniProt P00167)
[1]
  tolbutamide hydroxylation, reconstituted system: 0.57
[2]
  tolbutamide hydroxylation, reconstituted system: 1.77
[3]
  tolbutamide hydroxylation, reconstituted system: 0.51
[4]
  chlorzoxazone 6-hydroxylation by purified P450 2E1 (Vmax): 5.56

## rabbit liver NADPH-P450 reductase (from UniProt P00389) (enzyme)
[5]
  anaerobic reduction of P450 1A2 (rate of reduction, formation of the Fe2+.CO complex): > 3 min⁻¹

B1: purified recombinant human cytochrome P450 1A1, N-terminally modified (construct #17, SEQ ID NO: 5), expressed in E. coli (Homo sapiens; L2A) (protein)
chain: AFPISMSATEFLLASVIFCLVFWVIRASRPQVPKGLKNPPGPWGWPLIGHMLTLGKNPHLALSRMSQQYGDVLQIRIGSTPVVVLSGLDTIRQALVRQGDDFKGRPDLYTFTLISNGQSMSFSPDSGPVWAARRRLAQNGLKSFSIASDPASSTSCYLEEHVSKEAEVLISTLQELMAGPGHFNPYRYVVVSVTNVICAICFGRRYDHNHQELLSLVNLNNNFGEVVGSGNPADFIPILRYLPNPSLNAFKDLNEKFYSFMQKMVKEHYKTFEKGHIRDITDSLIEHCQEKQLDENANVQLSDEKIINIVLDLFGAGFDTVTTAISWSLMYLVMNPRVQRKIQEELDTVIGRSRRPRLSDRSHLPYMEAFILETFRHSSFVPFTIPHSTTRDTSLKGFYIPKGRCVFVNQWQINHDQKLWVNPSEFLPERFLTPDGAIDKVLSEKVIIFGMGKRKCIGETIARWEVFLFLAILLQRVEFSVPLGVKVDMTPIYGLTMKHACCEHFQMQLRS
notes: made in house; host or cells: E. coli DH5α, vector pCW
[6]
  Km: 15 µM
  kcat: 2.5 nmol product formed min^-1 (nmol P450)^-1
[7]
  Km: 0.58 µM
  kcat: 8.3 nmol product formed min^-1 (nmol P450)^-1
